How the values were obtained:
mutated p53 R273H = target: T1, mutated p53 R273H (Homo sapiens, UniProt P04637, R273H); test: transactivation experiments in yeast strain YDE4xp53 (LacZ expression, beta-galactosidase); format: cell-based; details: peptide expressed from the pESBA-ADH or pESBA-ACT vector in yeast
T1 construct: expressed in transfected cells; host or cells: Saccharomyces cerevisiae strain YDE4xp53 (derivative of JPY9)
Description: The agonistic action of the inventive screening system has been shown for the tumor suppressor gene p53. The tumor suppressor gene p53 is mutated in more than 50% of all human cancers which results in the inability to properly bind to the p53 binding site sin target genes responsible to induce cell cycle arrest or apoptosis. The four most commonly found mutations occur in the DNA binding domain of p53 and lead to a single amino acid substitution. […] This opens the possibility to use the peptide libraries according to the present invention to screen for peptides which restore the mutated p53 to wild type activity or to use this system to screen for agonistic actions of peptides in general. […]
Yeast strain YDE4xp53 was transformed with the conventional lithium acetate method (Methods in Yeast Genetics, a Cold Spring Harbor Laboratory Course Manual, Cold Spring Harbor Laboratory Press, 1994) with wild type and mutated p53 expression vectors. Transactivation potential of the different p53 molecules was determined by measurement of the LacZ expression on X-gal plates and liquid beta-galactosidase assays as described (Escher and Schaffner, Gene Activation at a Distance and Telomeric Silencing . . . , Mol. Gen. Genet. (1997) 256; 456-461). […]

mutated p53 (p53 R273H) = mutated p53 (p53 R273H) (Homo sapiens, UniProt P04637, R273H); details: synthetic peptide fused to the Drosophila Antennapedia internalisation domain (17 amino acids); cited from earlier work
[1] = target: T2, interaction between GAL4 and GAL11P (Saccharomyces cerevisiae, UniProt P19659, N342I); test: inhibition of GAL4(1-100)-GAL11P interaction and reporter gene (LacZ/URA3) activation in yeast; format: cell-based; details: expressed from a high-copy plasmid (2 μm) in yeast, vector pESBA-ADH1
T2 construct: expressed in transfected cells; host or cells: Saccharomyces cerevisiae, JPY9 derivative (gal4Δ11) with integrated pESBA-17mer-URA3
T2 sequence (P19659 whole entry N342I, the tested form may be a part): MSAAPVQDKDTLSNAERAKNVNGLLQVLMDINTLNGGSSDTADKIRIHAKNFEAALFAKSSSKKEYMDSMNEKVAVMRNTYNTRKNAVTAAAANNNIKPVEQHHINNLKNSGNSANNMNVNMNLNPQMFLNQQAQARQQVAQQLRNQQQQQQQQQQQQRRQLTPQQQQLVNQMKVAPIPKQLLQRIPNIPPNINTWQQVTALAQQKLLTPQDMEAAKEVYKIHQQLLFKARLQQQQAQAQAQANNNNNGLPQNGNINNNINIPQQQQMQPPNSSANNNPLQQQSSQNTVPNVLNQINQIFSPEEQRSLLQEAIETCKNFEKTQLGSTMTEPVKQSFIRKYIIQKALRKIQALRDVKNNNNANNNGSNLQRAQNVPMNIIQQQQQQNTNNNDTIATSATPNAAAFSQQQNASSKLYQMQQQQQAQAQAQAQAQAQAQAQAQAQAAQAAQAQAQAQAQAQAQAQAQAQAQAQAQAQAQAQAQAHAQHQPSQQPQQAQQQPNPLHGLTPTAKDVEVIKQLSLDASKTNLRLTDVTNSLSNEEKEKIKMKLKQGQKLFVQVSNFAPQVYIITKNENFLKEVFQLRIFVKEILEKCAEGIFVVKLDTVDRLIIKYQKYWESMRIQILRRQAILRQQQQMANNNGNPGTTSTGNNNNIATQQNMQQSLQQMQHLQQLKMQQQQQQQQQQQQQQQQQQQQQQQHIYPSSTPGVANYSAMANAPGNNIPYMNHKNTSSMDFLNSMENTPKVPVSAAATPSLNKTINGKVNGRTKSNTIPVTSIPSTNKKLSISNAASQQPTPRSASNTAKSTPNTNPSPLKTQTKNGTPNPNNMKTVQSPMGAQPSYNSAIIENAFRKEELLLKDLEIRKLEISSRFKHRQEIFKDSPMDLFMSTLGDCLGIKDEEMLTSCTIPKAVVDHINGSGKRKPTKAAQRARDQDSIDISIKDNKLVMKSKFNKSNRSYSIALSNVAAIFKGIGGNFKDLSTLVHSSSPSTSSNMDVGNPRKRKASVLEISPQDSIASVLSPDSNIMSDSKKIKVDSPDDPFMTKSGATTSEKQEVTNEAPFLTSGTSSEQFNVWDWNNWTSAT
Description: To test the antagonistic action of short protein fragments or peptides in yeast, it was checked whether high production of a peptide could inhibit a defined molecular interaction.
The yeast strain used in these experiments is a derivative of JPY9 (MATα, ura3-52, his3Δ200, leu2Δ1, trp1Δ63, lys2Δ385, gal4Δ11) (A. Barberis et al., Cell, Vol. 81, 359-368) in which the reporter construct pESBA-17mer-URA3 was integrated at the his3 locus. Integration through homologous recombination was piloted by linearisation of the reporter plasmid at the XhoI site prior to yeast transformation. Expression of the URA3 gene was exploited to select for stable integrants on ura-media. […] Upon selection for integration of the reporter construct, this plasmid was readily cured from yeast cells by negative selection for URA3 expression on media containing 5-FOA (ref. Guide to Yeast Genetics and Molecular Biology)
Activation of the divergent LacZ and URA3 reporter genes in the yeast strain described above was induced by co-expression of the DNA-binding domain of GAL4 (amino acid residues 1-100) and GAL11P. GAL4(1-100) was expressed from the plasmid pRJR217 (Y. Wu et al., Quantification of Putative Activator- Target Affinities . . . , EMBO J. 15, 3951-3963, 1996), while GALllP was expressed from pSO28 (A. Barberis et. al., Cell Vol. 81, 359-368). […]

| Substance | reactivation of mutated p53 R273H in transactivation experiments (mutated p53 R273H) | restoration of DNA binding activity of the mutated p53 (mutated p53 (p53 R273H)) | inhibition of GAL4-GAL11P protein-protein interaction and its effect on gene expression [1] |
| --- | --- | --- | --- |
| 22mer peptide 46: 22 amino acid long peptide stemming from the carboxy-terminal part of p53 (361-382) (GSRAHSSHLKSKKGQSTSRHKK; UniProt P04637 361-382, looked up, fragment) | sufficient to partially reactivate mutated p53 R273H | can restore DNA binding activity of the mutated p53 | – |
| short protein fragment: peptide comprising the GAL4 residues 58-97, known to contain the GAL11P-interacting sequence, overexpressed from vector pESBA-ADH1 | – | – | could be specifically inhibited |
